PMC2831303

What was measured:
[1] = biological target: NorRΔGAF (GAF domain deleted form of E. coli NorR) (E. coli)
[2] = biological target: NorRΔGAF (GAF domain deleted form of E. coli NorR) (E. coli); experiment: SEC
[3] = biological target: NorRΔGAF (GAF domain deleted form of E. coli NorR) (E. coli); experiment: negative-stain electron microscopy
[4] = biological target: T1, NorRΔGAF (Escherichia coli, UniProt P37013 178-504); experiment: EMSA
T1 sequence: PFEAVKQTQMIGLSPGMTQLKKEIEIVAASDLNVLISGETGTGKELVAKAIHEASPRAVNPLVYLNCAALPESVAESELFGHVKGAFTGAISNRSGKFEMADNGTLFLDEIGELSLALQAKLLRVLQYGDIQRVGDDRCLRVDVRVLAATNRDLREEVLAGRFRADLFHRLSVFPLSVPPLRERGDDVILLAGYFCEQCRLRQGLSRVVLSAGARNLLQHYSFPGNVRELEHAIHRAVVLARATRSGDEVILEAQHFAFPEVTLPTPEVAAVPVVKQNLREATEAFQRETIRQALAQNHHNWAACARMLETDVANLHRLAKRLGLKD

[5] = biological target: T1, NorRΔGAF; experiment: gel filtration

Question: Which results are given for “NorRΔGAF (GAF domain deleted form of E. coli NorR) (domain or fragment)”?
Answer: ATPase activity against NorRΔGAF concentration with 21 bp NorR1 DNA (1:1): Keff [1]: 8.4 µM; stoichiometry N [2]: 2; stoichiometry N [3]: 6

B1: NorR123 66 bp (dsDNA)
DNA 1: TCACTGTCAATTTGACTATAGATATTGTCATATCGACCATTTGATTGATAGTCATTTTGACTACTC
DNA 2: GAGTAGTCAAAATGACTATCAATCAAATGGTCGATATGACAATATCTATAGTCAAATTGACAGTGA
Question: With B1 as the molecule, how does the Kd [4] read?
Answer: 174 nM

B2: NorR1 21 bp (dsDNA)
DNA 1: GATAGTCATTTTGACTACTCA
DNA 2: TGAGTAGTCAAAATGACTATC
Question: Does B2 bind [5]?
Answer: binds
